Test results reported in patent US20200048350A1 (INHIBRX BIOSCIENCES, published 2020).

T1: DLL3 (human, UniProt Q9NYJ7 27-618)
T1 construct: also called Delta-like 3; Human DLL3
T1 sequence: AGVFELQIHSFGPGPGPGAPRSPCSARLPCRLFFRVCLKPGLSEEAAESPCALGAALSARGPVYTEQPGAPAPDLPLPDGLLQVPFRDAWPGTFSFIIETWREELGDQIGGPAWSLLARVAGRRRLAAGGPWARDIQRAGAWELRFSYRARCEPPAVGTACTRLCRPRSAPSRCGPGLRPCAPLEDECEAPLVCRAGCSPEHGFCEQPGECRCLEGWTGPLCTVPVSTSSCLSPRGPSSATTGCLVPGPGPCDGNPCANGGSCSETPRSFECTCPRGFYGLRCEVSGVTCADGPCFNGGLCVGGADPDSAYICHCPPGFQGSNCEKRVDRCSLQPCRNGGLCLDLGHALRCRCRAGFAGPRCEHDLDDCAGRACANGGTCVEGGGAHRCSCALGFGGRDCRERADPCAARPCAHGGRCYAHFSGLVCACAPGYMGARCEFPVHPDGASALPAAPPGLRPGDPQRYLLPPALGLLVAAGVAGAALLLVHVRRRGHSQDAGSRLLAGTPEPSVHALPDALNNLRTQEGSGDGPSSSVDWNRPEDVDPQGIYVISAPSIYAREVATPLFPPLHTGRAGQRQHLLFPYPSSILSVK

T2: B7H3 (UniProt Q5ZPR3 29-534, limits assumed)
T2 construct: whole, on cells; also called CD276
T2 sequence (looked up): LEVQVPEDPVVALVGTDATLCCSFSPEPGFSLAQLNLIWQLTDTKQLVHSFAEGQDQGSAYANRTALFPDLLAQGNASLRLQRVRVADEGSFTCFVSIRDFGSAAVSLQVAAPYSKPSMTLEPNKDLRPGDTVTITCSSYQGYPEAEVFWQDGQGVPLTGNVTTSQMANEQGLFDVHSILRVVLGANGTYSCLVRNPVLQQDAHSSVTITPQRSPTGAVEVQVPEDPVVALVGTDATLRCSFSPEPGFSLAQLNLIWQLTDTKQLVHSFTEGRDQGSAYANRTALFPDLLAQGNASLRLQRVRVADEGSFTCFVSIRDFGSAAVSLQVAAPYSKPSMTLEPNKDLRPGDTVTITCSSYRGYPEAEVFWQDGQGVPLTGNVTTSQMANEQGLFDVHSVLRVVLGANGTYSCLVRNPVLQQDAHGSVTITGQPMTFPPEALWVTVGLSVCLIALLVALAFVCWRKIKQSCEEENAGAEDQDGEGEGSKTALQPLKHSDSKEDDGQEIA


Legend:
DLL3 = biological target: T1, DLL3; experiment: flow cytometry on SHP-77 cells, anti-human IgG Fc secondary
Method: (§1) Binding of exemplary multispecific constructs containing an antigen-binding domain directed against DLL3 were assessed for binding to DLL3 positive SHP-77 tumor cells or primary T-cells. […] These binding assays were conducted by flow cytometry, wherein bound constructs were detected using a fluorophore-conjugated anti-human IgG Fc secondary antibody.

CD3 = biological target: T3, CD3 (human, UniProt P07766 23-207); experiment: flow cytometry on primary T cells, anti-human IgG Fc secondary
T3 construct: whole, on cells; CD3 is a multi-chain complex; also called CD3ε; CD3 on the surface of primary T cells
Method: as §1

B7H3 = biological target: T2, B7H3; experiment: flow cytometry on A375 cells

T3 sequence (P07766 23-207): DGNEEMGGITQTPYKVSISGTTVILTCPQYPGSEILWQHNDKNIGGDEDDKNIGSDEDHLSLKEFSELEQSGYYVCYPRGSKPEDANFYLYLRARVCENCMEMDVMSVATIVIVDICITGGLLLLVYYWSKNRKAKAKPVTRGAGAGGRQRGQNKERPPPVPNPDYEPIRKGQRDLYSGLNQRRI

Binder | binding result (DLL3) | binding result (CD3) | binding result (B7H3)
cx5352 (other, Fc alternatives printed; first written; Short peptide linkers only 'e.g.') chain 1: EVQLVESGGGEVQPGGSLRLSCAASGSIFSINAMGWYRQAPGKQRELVAGFTGDTNTIYAESVKGRFTISRDNAKNTVYLQMSSLRAEDTAVYYCAADVQLFSRDYEFYWGQGTLVTVKPPGGGGDKTHTCPPCPAPGGPSVFLFPPKPKDTLMISRTPEVTCVVVDVSHEDPEVKFNWYVDGVEVHNAKTKPREEQYNSTYRVVSVLTVLHQDWLNGKEYKCKVSNKALPAPIEKTISKAKGQPREPQVYTLPPCRDELTKNQVSLWCLVKGFYPSDIAVEWESNGQPENNYKTTPPVLDSDGSFFLYSKLTVDKSRWQQGNVFSCSVMHEALHNHYTQKSLSLSPTGGGGGSGGGGGSGGGGGSEVQLVESGGGLVQPGGSLRLSCAASGFTFNTYAMNWVRQAPGKCLEWVARIRSKYNNYATYYADSVKGRFTISRDDAKNTLYLQMSSLRAEDTAVYYCVRHGNFGNSYVSWFAYWGQGTLVTVKPGGGGEVQLVESGGGEVQPGGSLRLSCGPSEIITSDKSMGWVRQAPGKQRNLVAGISNVGSTNYAQSVKGRFTISRDNAKNTVYLQMSSLRAEDTAVYYCYARDFENEYWGQGTLVTVKP chain 2: DKTHTCPPCPAPGGPSVFLFPPKPKDTLMISRTPEVTCVVVDVSHEDPEVKFNWYVDGVEVHNAKTKPREEQYNSTYRVVSVLTVLHQDWLNGKEYKCKVSNKALPAPIEKTISKAKGQPREPQVCTLPPSRDELTKNQVSLSCAVKGFYPSDIAVEWESNGQPENNYKTTPPVLDSDGSFFLVSKLTVDKSRWQQGNVFSCSVMHEALHNRYTQKSLSLSPTGGGGGSGGGGGSGGGGGSQAVVTQEPSLTVSPGGTVTLTCGSSTGAVTTSNYANWVQQKPGQAFRGLIGGTNKRAPGVPARFSGSLLGGKAALTISGAQPEDEADYYCALWYSNHWVFGCGTKLEIKGGGGEVQLLESGGGEVQPGGSLRLSCAASGFSFSINAMGWYRQAPGKRREFVAAIESGRNTVYAESVKGRFTISRDNAKNTVYLQMSSLRAEDTAVYYCGLLKGNRVVSPSVAYWGQGTLVTVKP | binds | no binding | 
cx5801 (other, Fc alternatives printed; first written; Short peptide linkers only 'e.g.'; also called monovalent DLL3-targeted constrained CD3 engaging construct (C-terminal sdAb)) chain 1: DKTHTCPPCPAPGGPSVFLFPPKPKDTLMISRTPEVTCVVVDVSHEDPEVKFNWYVDGVEVHNAKTKPREEQYNSTYRVVSVLTVLHQDWLNGKEYKCKVSNKALPAPIEKTISKAKGQPREPQVYTLPPCRDELTKNQVSLWCLVKGFYPSDIAVEWESNGQPENNYKTTPPVLDSDGSFFLYSKLTVDKSRWQQGNVFSCSVMHEALHNHYTQKSLSLSPTGGGGGSGGGGGSGGGGGSEVQLVESGGGLVQPGGSLRLSCAASGFTFNTYAMNWVRQAPGKCLEWVARIRSKYNNYATYYADSVKGRFTISRDDAKNTLYLQMSSLRAEDTAVYYCVRHGNFGNSYVSWFAYWGQGTLVTVKPGGGGEVQLVESGGGEVQPGGSLRLSCGPSEIITSDKSMGWVRQAPGKQRNLVAGISNVGSTNYAQSVKGRFTISRDNAKNTVYLQMSSLRAEDTAVYYCYARDFENEYWGQGTLVTVKP chain 2: DKTHTCPPCPAPGGPSVFLFPPKPKDTLMISRTPEVTCVVVDVSHEDPEVKFNWYVDGVEVHNAKTKPREEQYNSTYRVVSVLTVLHQDWLNGKEYKCKVSNKALPAPIEKTISKAKGQPREPQVCTLPPSRDELTKNQVSLSCAVKGFYPSDIAVEWESNGQPENNYKTTPPVLDSDGSFFLVSKLTVDKSRWQQGNVFSCSVMHEALHNRYTQKSLSLSPTGGGGGSGGGGGSGGGGGSQAVVTQEPSLTVSPGGTVTLTCGSSTGAVTTSNYANWVQQKPGQAFRGLIGGTNKRAPGVPARFSGSLLGGKAALTISGAQPEDEADYYCALWYSNHWVFGCGTKLEIKGGGGEVQLLESGGGEVQPGGSLRLSCAASGFSFSINAMGWYRQAPGKRREFVAAIESGRNTVYAESVKGRFTISRDNAKNTVYLQMSSLRAEDTAVYYCGLLKGNRVVSPSVAYWGQGTLVTVKP | binds | no binding | 
cx5800 (other, Fc alternatives printed; first written; Short peptide linkers only 'e.g.'; also called monovalent DLL3-targeted constrained CD3 engaging construct (N-terminal sdAb)) chain 1: EVQLVESGGGEVQPGGSLRLSCAASGSIFSINAMGWYRQAPGKQRELVAGFTGDTNTIYAESVKGRFTISRDNAKNTVYLQMSSLRAEDTAVYYCAADVQLFSRDYEFYWGQGTLVTVKPPGGGGDKTHTCPPCPAPGGPSVFLFPPKPKDTLMISRTPEVTCVVVDVSHEDPEVKFNWYVDGVEVHNAKTKPREEQYNSTYRVVSVLTVLHQDWLNGKEYKCKVSNKALPAPIEKTISKAKGQPREPQVYTLPPCRDELTKNQVSLWCLVKGFYPSDIAVEWESNGQPENNYKTTPPVLDSDGSFFLYSKLTVDKSRWQQGNVFSCSVMHEALHNHYTQKSLSLSPTGGGGGSGGGGGSGGGGGSEVQLVESGGGLVQPGGSLRLSCAASGFTFNTYAMNWVRQAPGKCLEWVARIRSKYNNYATYYADSVKGRFTISRDDAKNTLYLQMSSLRAEDTAVYYCVRHGNFGNSYVSWFAYWGQGTLVTVKP chain 2: DKTHTCPPCPAPGGPSVFLFPPKPKDTLMISRTPEVTCVVVDVSHEDPEVKFNWYVDGVEVHNAKTKPREEQYNSTYRVVSVLTVLHQDWLNGKEYKCKVSNKALPAPIEKTISKAKGQPREPQVCTLPPSRDELTKNQVSLSCAVKGFYPSDIAVEWESNGQPENNYKTTPPVLDSDGSFFLVSKLTVDKSRWQQGNVFSCSVMHEALHNRYTQKSLSLSPTGGGGGSGGGGGSGGGGGSQAVVTQEPSLTVSPGGTVTLTCGSSTGAVTTSNYANWVQQKPGQAFRGLIGGTNKRAPGVPARFSGSLLGGKAALTISGAQPEDEADYYCALWYSNHWVFGCGTKLEIKGGGGEVQLLESGGGEVQPGGSLRLSCAASGFSFSINAMGWYRQAPGKRREFVAAIESGRNTVYAESVKGRFTISRDNAKNTVYLQMSSLRAEDTAVYYCGLLKGNRVVSPSVAYWGQGTLVTVKP | binds | no binding | 
DART-Fc B7H3xCD3 (bispecific antibody, Comparator; also called DART-Fc format B7H3xCD3; B7-H3 x CD3 Bispecific DART-A Diabody) chain 1: DIQLTQSPSFLSASVGDRVTITCKASQNVDTNVAWYQQKPGKAPKALIYSASYRYSGVPSRFSGSGSGTDFTLTISSLQPEDFATYYCQQYNNYPFTFGQGTKLEIKGGGSGGGGEVQLVESGGGLVQPGGSLRLSCAASGFTFSTYAMNWVRQAPGKGLEWVGRIRSKYNNYATYYADSVKDRFTISRDDSKNSLYLQMNSLKTEDTAVYYCVRHGNFGNSYVSWFAYWGQGTLVTVSSGGCGGGEVAALEKEVAALEKEVAALEKEVAALEKGGGDKTHTCPPCPAPEAAGGPSVFLFPPKPKDTLMISRTPEVTCVVVDVSHEDPEVKFNWYVDGVEVHNAKTKPREEQYNSTYRVVSVLTVLHQDWLNGKEYKCKVSNKALPAPIEKTISKAKGQPREPQVYTLPPSREEMTKNQVSLWCLVKGFYPSDIAVEWESNGQPENNYKTTPPVLDSDGSFFLYSKLTVDKSRWQQGNVFSCSVMHEALHNHYTQKSLSLSPGK chain 2: QAVVTQEPSLTVSPGGTVTLTCRSSTGAVTTSNYANWVQQKPGQAPRGLIGGTNKRAPWTPARFSGSLLGGKAALTITGAQAEDEADYYCALWYSNLWVFGGGTKLTVLGGGGSGGGGEVQLVESGGGLVQPGGSLRLSCAASGFTFSSFGMHWVRQAPGKGLEWVAYISSDSSAIYYADTVKGRFTISRDNAKNSLYLQMNSLRDEDTAVYYCGRGRENIYYGSRLDYWGQGTTVTVSSGGCGGGKVAALKEKVAALKEKVAALKEKVAALKE chain 3: not shown |  |  | binds
